Measured values reported in paper PMC6166021.

Test system: T1, NtcA (His6-tagged) (Nostoc sp. PCC 7120), ORF:1390dea6
T1 sequence: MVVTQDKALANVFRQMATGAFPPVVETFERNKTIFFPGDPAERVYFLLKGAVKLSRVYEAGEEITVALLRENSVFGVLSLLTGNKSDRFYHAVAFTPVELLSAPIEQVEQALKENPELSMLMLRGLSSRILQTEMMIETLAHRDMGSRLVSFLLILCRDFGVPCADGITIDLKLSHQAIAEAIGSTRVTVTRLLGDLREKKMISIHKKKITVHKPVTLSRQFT
Test: EMSA
Conditions: EMSA as in Muro-Pastor et al. 1999; buffer, salt, pH and temperature not given in the material

Row | Sequence | binding
1 | ATCGATACTCTCGCAACAACGAAAGAATAGTAGTTTCATCAACCTCTAAACCTTTATATCTCCATACCCCTACACCCTAAACCCATATTTTGAGGGTATAGCGTAAGAACCCTACACCCGTCAGCCTCTTCTCCCCCCATTGACATTTTTGAAATATTCTGAAAGATAGAGGCTGATTACCTCCGGGTATATCTTTTTTCGGTAAATTTTTTCAAAAAAACTGTGTTGCCTGTATGAATATTGTTAAGAAAAGTTGCCCGTTGCATTTTGGGAATACGCAGCCGGGTTTTAACTC (double strand) [nsrR1 promoter fragment, mutated NtcA site (TAC to ATG)] | no binding
2 | ATCGATACTCTCGCAACAACGAAAGAATAGTAGTTTCATCAACCTCTAAACCTTTATATCTCCATACCCCTACACCCTAAACCCATATTTTGAGGGTATAGCGTAAGAACCCTACACCCGTCAGCCTCTTCTCCCCCCATTGACATTTTTGAAATATTCTGAAAGATAGAGGCTGATTACCTCCGGGTATATCTTTTTTCGGTAAATTTTTTCAAAAAAACTGTGTTGCCTGTTACAATATTGTTAAGAAAAGTTGCCCGTTGCATTTTGGGAATACGCAGCCGGGTTTTAACTC (double strand) [nsrR1 promoter fragment WT (-239 to +50)] | binds
